Assay results reported in the supplement of paper PMC9112550, “Optimization of the antimicrobial peptide Bac7 by deep mutational scanning” (BMC Biology, 2022).

Test system: Escherichia coli TOP10
Experiment: shrunken log2 fold change of peptide-encoding DNA abundance (4.5 h post-induction vs induction); higher = less antimicrobial activity (less host growth inhibition)
Conditions: time post-induction: 4.5 h; library: site-saturation at positions 5, 18, 19, 20
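Note: peptides expressed intracellularly from a pBAD plasmid library in pooled LB shake-flask culture, induced with 0.3% L-arabinose, DNA abundance read by NGS, three biological replicates, DESeq2 with apeglm shrinkage.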

| Sequence | shrunken log2 fold change |
| --- | --- |
| RRIRLRPPRLPRPRPRPKERPRP | -0.00664 |
| RRIRFRPPRLPRPRPRPSHFPRP | -0.136 |
| RRIRIRPPRLPRPRPRPPKEPRP | -0.0998 |
| RRIRSRPPRLPRPRPRPTNPPRP | -0.0555 |
| RRIRVRPPRLPRPRPRPVHGPRP | -0.0285 |
| RRIRIRPPRLPRPRPRPQKTPRP | -0.168 |
| RRIRCRPPRLPRPRPRPMQKPRP | 0.0364 |
| RRIRCRPPRLPRPRPRPESEPRP | 0.237 |
| RRIRTRPPRLPRPRPRPGACPRP | -0.234 |
| RRIRFRPPRLPRPRPRPTMQPRP | 0.219 |
| RRIRSRPPRLPRPRPRPTLAPRP | 0.542 |
| RRIRRRPPRLPRPRPRPNHLPRP | -0.394 |
| RRIRLRPPRLPRPRPRPFTEPRP | -0.163 |
| RRIRTRPPRLPRPRPRPFSHPRP | -0.399 |
| RRIRRRPPRLPRPRPRPVNPPRP | 0.391 |
| RRIRYRPPRLPRPRPRPTGQPRP | 0.0557 |
| RRIRDRPPRLPRPRPRPQKMPRP | -0.0885 |
| RRIRARPPRLPRPRPRPNWPPRP | 0.0205 |
| RRIRYRPPRLPRPRPRPIRQPRP | -0.0123 |
| RRIRQRPPRLPRPRPRPRCWPRP | 0.257 |
| RRIRDRPPRLPRPRPRPDVVPRP | -0.0108 |
| RRIRYRPPRLPRPRPRPYQAPRP | -0.0933 |
| RRIRWRPPRLPRPRPRPLQRPRP | 0.189 |

| Sequence | shrunken log2 fold change |
| --- | --- |
| RRIRKRPPRLPRPRPRPAMIPRP | 0.909 |
| RRIRHRPPRLPRPRPRPMSTPRP | -0.12 |
| RRIRRRPPRLPRPRPRPLTNPRP | -0.16 |
| RRIRPRPPRLPRPRPRPYYRPRP | -0.178 |
| RRIRRRPPRLPRPRPRPLRHPRP | 0.558 |
| RRIRLRPPRLPRPRPRPCWQPRP | 0.00378 |
| RRIRRRPPRLPRPRPRPWSQPRP | -0.132 |
| RRIRARPPRLPRPRPRPHHIPRP | -0.345 |
| RRIRCRPPRLPRPRPRPFAFPRP | -0.169 |
| RRIRERPPRLPRPRPRPGGQPRP | 0.171 |
| RRIRIRPPRLPRPRPRPYAWPRP | -0.402 |
| RRIRLRPPRLPRPRPRPMETPRP | 0.483 |
| RRIRNRPPRLPRPRPRPEMQPRP | -0.00804 |
| RRIRVRPPRLPRPRPRPHNHPRP | -0.468 |
| RRIRWRPPRLPRPRPRPDWEPRP | 0.229 |
| RRIRFRPPRLPRPRPRPDQWPRP | -0.125 |
| RRIRGRPPRLPRPRPRPPEAPRP | 1.33 |
| RRIRRRPPRLPRPRPRPLVSPRP | 0.153 |
| RRIRVRPPRLPRPRPRPDKIPRP | -0.19 |
| RRIRMRPPRLPRPRPRPSKRPRP | 0.386 |
| RRIRERPPRLPRPRPRPEPYPRP | -0.0697 |
| RRIRFRPPRLPRPRPRPDVMPRP | -0.0908 |
| RRIRIRPPRLPRPRPRPEPEPRP | 0.421 |

| Sequence | shrunken log2 fold change |
| --- | --- |
| RRIRARPPRLPRPRPRPVDCPRP | 0.26 |
| RRIRTRPPRLPRPRPRPAGGPRP | 0.304 |
| RRIRRRPPRLPRPRPRPAHAPRP | 0.407 |
| RRIRQRPPRLPRPRPRPKHNPRP | -0.368 |
| RRIRGRPPRLPRPRPRPPYQPRP | 0.123 |
| RRIRFRPPRLPRPRPRPEGNPRP | -0.0429 |
| RRIRSRPPRLPRPRPRPRFWPRP | 0.269 |
| RRIRFRPPRLPRPRPRPWDNPRP | -0.298 |
| RRIRRRPPRLPRPRPRPFVGPRP | -0.229 |
| RRIRRRPPRLPRPRPRPNREPRP | 0.232 |
| RRIRPRPPRLPRPRPRPVHQPRP | -0.00254 |
| RRIRKRPPRLPRPRPRPFYTPRP | -0.109 |
| RRIRYRPPRLPRPRPRPCSLPRP | 0.0201 |
| RRIRFRPPRLPRPRPRPEFCPRP | 0.139 |
| RRIRERPPRLPRPRPRPTWDPRP | -0.327 |
| RRIRARPPRLPRPRPRPVWWPRP | 0.987 |
| RRIRHRPPRLPRPRPRPVQTPRP | -0.011 |
| RRIRSRPPRLPRPRPRPLMDPRP | -0.00235 |
| RRIRPRPPRLPRPRPRPPMQPRP | 0.421 |
| RRIRQRPPRLPRPRPRPRQYPRP | -0.163 |
| RRIRDRPPRLPRPRPRPGDLPRP | 0.178 |
| RRIRTRPPRLPRPRPRPRTRPRP | 0.204 |
| RRIRERPPRLPRPRPRPDNHPRP | -0.802 |

| Sequence | shrunken log2 fold change |
| --- | --- |
| RRIRMRPPRLPRPRPRPHIGPRP | -0.00118 |
| RRIRGRPPRLPRPRPRPINNPRP | -0.0606 |
| RRIRSRPPRLPRPRPRPFCWPRP | 0.651 |
| RRIRHRPPRLPRPRPRPEWHPRP | 0.0223 |
| RRIRTRPPRLPRPRPRPCDEPRP | -0.0429 |
| RRIRWRPPRLPRPRPRPGHGPRP | 0.214 |
| RRIRTRPPRLPRPRPRPTYWPRP | -0.00518 |
| RRIRNRPPRLPRPRPRPRTVPRP | -0.403 |
| RRIRWRPPRLPRPRPRPHNDPRP | -0.324 |
| RRIRKRPPRLPRPRPRPDATPRP | 2.81 |
| RRIRCRPPRLPRPRPRPVQPPRP | 0.455 |
| RRIRTRPPRLPRPRPRPIWIPRP | -0.00704 |
| RRIRRRPPRLPRPRPRPSESPRP | 0.0539 |
| RRIRFRPPRLPRPRPRPNGPPRP | -0.0934 |
| RRIRGRPPRLPRPRPRPQRFPRP | 0.139 |
| RRIRPRPPRLPRPRPRPTYKPRP | -0.455 |
| RRIRPRPPRLPRPRPRPWAWPRP | 0.0719 |
| RRIRLRPPRLPRPRPRPTGSPRP | -0.0138 |
| RRIRSRPPRLPRPRPRPGWGPRP | 0.291 |
| RRIRDRPPRLPRPRPRPEFFPRP | 0.896 |
| RRIRERPPRLPRPRPRPRPSPRP | -0.093 |
| RRIRMRPPRLPRPRPRPLGTPRP | 1.31 |
